Paper PMC5615231

Molecular target: recombinant Aβ42 peptide (UniProt P05067)

Sequence of extracellular chaperone clusterin (P10909 23-227): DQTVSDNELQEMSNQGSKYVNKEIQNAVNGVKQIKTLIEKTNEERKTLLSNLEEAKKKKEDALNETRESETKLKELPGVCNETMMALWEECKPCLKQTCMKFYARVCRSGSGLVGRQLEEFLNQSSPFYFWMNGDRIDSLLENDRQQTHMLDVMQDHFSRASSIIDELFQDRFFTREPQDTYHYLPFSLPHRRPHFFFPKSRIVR
Sequence of extracellular chaperone clusterin (P10909 228-449): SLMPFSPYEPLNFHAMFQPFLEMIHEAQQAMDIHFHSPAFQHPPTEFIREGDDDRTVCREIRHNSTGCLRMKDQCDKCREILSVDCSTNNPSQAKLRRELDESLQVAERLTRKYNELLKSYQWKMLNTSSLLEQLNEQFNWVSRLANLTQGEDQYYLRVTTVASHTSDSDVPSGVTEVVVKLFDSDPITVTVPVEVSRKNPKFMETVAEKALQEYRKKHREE

## extracellular chaperone clusterin (from UniProt P10909 23-227; P10909 228-449) (natural protein)
  concentration of clusterin required to reduce by half the Ca^2+ influx into lipid vesicles induced by Aβ42 oligomers (t2 aliquot; dilution series): 0.1 nM
